Experimental data published in US20200262877A1, “ION CHANNEL-BINDING PEPTIDES AND METHODS OF USE THEREOF” (priority 2017, published 2020).

Assays:
[1] = target: T1, TRPA1 (Homo sapiens, UniProt O75762); assay: Ion channel panel (IonWorks Barracuda): TRPA1; type: cell-based; details: 100% = no change, <100% = inhibition
T1 construct: host or cells: HEK293 or CHO
In short: (§1)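 Transfected HEK293 or CHO cells were exposed for at least 5 min to peptides at 200 nM and 20 μM final, tested in duplicate, in HEPES-buffered physiological saline. Activation was taken as peptide-plus-agonist current over control current ×100, and inhibition as 1 minus that ratio ×100. Each channel's control was its own reference compound.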

[2] = target: T2, Cav2.1 (Homo sapiens, UniProt O00555); assay: cell-based; details: 100% = no change, <100% = inhibition
T2 construct: host or cells: HEK293 or CHO
In short: as §1

[3] = target: T3, Kv2.1 (Homo sapiens, UniProt Q14721); assay: cell-based; details: 100% = no change, <100% = inhibition
T3 construct: host or cells: HEK293 or CHO
In short: as §1

[4] = target: T4, Cav2.2 (Homo sapiens, UniProt Q00975); assay: cell-based; details: 100% = no change, <100% = inhibition
T4 construct: host or cells: HEK293 or CHO
In short: as §1

[5] = target: T5, Kir2.1 (Homo sapiens, UniProt P63252); assay: Ion channel panel (IonWorks Barracuda): Kir2.1; type: cell-based; details: 100% = no change, <100% = inhibition
T5 construct: host or cells: HEK293 or CHO
T5 sequence (P63252 whole entry): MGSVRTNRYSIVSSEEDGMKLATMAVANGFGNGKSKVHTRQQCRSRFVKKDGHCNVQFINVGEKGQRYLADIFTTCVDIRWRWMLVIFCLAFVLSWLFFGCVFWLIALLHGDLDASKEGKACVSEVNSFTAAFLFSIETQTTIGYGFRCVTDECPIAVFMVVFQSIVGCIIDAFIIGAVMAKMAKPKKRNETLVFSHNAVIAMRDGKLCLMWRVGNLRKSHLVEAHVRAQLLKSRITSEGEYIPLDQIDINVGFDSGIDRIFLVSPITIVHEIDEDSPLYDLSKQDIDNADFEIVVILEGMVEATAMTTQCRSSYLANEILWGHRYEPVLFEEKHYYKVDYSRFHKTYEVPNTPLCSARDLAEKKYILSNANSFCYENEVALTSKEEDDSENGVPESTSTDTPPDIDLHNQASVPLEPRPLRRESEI
In short: as §1

[6] = target: T6, 5HT3a (Homo sapiens, UniProt P46098); assay: Ion channel panel (IonWorks Barracuda): 5HT3a; type: cell-based
T6 construct: host or cells: HEK293 or CHO
T6 sequence (P46098 whole entry, looked up): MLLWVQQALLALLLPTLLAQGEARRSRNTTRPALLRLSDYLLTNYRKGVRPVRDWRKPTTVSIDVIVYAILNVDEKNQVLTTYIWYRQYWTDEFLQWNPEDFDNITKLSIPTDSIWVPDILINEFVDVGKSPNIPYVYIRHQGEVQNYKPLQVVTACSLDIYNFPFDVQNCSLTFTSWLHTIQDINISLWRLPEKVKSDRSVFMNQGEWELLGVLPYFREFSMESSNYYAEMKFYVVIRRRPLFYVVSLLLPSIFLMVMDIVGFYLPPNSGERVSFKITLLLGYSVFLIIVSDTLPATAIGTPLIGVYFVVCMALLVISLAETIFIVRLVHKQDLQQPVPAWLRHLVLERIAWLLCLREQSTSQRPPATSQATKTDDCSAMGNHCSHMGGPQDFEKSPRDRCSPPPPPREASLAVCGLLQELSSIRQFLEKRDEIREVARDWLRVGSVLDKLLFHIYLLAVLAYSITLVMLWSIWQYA
In short: as §1

[7] = target: T7, NR2B (Homo sapiens, UniProt Q13224); assay: Ion channel panel (IonWorks Barracuda): NR2B; type: cell-based; details: 100% = no change, <100% = inhibition
T7 construct: host or cells: HEK293 or CHO
In short: as §1

[8] = target: T8, Nav1.7 (Homo sapiens, UniProt Q15858); assay: cell-based; type: cell-based; details: 100% = no change; for Activity of Nav1.7 with peptide, expressed as a percentage of the reference compound: peptide at 0.2 μM; for Activity of Nav1.7 with peptide (percentage of the reference compound): peptide at 20 μM
T8 construct: host or cells: HEK293 or CHO
T8 sequence (Q15858 whole entry): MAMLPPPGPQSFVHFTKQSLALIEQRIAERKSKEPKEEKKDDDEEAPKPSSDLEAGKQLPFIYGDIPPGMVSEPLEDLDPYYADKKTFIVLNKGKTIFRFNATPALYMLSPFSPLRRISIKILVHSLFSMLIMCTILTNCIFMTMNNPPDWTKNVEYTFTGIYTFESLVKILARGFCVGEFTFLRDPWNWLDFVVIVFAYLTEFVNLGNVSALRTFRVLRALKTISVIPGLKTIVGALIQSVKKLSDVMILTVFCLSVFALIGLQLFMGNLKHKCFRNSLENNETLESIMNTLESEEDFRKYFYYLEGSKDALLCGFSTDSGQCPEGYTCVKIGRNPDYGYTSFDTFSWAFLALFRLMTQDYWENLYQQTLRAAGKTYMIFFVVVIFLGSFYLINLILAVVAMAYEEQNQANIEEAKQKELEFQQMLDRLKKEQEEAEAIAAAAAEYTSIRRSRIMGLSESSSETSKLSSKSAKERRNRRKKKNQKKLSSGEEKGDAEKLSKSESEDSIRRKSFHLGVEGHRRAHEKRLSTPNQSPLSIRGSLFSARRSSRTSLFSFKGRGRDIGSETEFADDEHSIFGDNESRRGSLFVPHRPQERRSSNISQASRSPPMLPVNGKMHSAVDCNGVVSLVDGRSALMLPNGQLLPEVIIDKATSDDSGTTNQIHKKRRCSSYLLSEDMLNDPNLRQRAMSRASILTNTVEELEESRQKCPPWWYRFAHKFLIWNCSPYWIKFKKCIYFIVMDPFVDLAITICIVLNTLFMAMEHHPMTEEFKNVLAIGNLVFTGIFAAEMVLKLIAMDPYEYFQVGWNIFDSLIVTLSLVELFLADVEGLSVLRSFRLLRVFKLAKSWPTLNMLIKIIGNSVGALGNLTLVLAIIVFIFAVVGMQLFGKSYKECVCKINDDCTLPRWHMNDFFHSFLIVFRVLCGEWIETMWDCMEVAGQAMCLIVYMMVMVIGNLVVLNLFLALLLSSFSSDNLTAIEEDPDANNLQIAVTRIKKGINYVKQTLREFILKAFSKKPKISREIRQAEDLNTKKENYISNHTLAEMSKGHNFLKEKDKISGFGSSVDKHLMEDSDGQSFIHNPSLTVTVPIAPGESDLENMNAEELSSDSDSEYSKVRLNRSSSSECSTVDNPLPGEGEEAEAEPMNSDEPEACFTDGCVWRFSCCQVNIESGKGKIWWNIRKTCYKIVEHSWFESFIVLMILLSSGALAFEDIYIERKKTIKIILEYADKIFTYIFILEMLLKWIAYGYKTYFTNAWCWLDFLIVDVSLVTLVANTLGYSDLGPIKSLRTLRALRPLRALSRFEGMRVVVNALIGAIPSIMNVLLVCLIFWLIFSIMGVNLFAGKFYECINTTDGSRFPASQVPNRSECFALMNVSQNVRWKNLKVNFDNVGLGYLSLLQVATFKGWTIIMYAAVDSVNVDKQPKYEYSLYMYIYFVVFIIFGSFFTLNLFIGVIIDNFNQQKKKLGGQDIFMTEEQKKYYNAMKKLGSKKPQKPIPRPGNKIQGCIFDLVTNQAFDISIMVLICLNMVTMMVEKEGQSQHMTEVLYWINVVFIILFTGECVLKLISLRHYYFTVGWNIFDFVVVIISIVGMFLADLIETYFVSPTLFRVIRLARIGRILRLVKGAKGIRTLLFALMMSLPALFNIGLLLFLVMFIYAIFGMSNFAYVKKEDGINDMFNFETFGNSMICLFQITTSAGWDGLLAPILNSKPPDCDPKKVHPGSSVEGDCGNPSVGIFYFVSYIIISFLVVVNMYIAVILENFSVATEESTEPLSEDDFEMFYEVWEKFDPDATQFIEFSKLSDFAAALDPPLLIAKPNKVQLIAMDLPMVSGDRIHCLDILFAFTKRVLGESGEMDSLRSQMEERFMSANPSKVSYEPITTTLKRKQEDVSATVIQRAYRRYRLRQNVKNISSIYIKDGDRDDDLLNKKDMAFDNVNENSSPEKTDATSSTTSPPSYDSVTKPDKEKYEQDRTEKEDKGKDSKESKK

[9] = target: T9, NR2A (Homo sapiens, UniProt Q12879); assay: Ion channel panel (IonWorks Barracuda): NR2A; type: cell-based; details: 100% = no change, <100% = inhibition
T9 construct: host or cells: HEK293 or CHO
In short: as §1

[10] = target: T10, Kv1.1 (Homo sapiens, UniProt Q09470); assay: cell-based; type: cell-based; details: 100% = no change, <100% = inhibition
T10 construct: host or cells: HEK293 or CHO
In short: as §1

[11] = target: T11, Kv1.2 (Homo sapiens, UniProt P16389); assay: cell-based; type: cell-based; details: 100% = no change, <100% = inhibition
T11 construct: host or cells: HEK293 or CHO
T11 sequence (P16389 whole entry): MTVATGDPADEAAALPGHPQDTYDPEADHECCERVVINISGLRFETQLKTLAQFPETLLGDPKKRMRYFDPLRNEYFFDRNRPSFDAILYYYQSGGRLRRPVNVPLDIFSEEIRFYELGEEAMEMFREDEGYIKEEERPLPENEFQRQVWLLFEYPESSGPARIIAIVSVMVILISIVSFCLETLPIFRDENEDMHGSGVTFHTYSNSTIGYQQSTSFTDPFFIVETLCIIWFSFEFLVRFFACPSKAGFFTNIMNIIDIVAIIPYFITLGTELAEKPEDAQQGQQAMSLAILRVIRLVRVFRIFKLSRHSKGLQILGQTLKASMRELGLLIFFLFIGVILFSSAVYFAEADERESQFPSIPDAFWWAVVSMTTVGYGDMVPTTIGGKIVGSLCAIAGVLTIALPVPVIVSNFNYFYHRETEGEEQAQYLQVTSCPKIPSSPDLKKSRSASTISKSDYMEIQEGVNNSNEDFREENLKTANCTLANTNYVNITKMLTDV
In short: as §1

[12] = target: T12, Kv1.3 (Homo sapiens, UniProt P22001); assay: cell-based; type: cell-based; details: 100% = no change, <100% = inhibition
T12 construct: host or cells: HEK293 or CHO
In short: as §1

[13] = target: Nav1.5 (Homo sapiens, UniProt Q14524); assay: in vitro; details: 100% = no change; for Activity of Nav1.5 with peptide, expressed as a percentage of the reference compound: peptide at 0.2 μM; for Activity of Nav1.5 with peptide (percentage of the reference compound): peptide at 20 μM
Chain of Nav1.5 (Q14524 whole entry): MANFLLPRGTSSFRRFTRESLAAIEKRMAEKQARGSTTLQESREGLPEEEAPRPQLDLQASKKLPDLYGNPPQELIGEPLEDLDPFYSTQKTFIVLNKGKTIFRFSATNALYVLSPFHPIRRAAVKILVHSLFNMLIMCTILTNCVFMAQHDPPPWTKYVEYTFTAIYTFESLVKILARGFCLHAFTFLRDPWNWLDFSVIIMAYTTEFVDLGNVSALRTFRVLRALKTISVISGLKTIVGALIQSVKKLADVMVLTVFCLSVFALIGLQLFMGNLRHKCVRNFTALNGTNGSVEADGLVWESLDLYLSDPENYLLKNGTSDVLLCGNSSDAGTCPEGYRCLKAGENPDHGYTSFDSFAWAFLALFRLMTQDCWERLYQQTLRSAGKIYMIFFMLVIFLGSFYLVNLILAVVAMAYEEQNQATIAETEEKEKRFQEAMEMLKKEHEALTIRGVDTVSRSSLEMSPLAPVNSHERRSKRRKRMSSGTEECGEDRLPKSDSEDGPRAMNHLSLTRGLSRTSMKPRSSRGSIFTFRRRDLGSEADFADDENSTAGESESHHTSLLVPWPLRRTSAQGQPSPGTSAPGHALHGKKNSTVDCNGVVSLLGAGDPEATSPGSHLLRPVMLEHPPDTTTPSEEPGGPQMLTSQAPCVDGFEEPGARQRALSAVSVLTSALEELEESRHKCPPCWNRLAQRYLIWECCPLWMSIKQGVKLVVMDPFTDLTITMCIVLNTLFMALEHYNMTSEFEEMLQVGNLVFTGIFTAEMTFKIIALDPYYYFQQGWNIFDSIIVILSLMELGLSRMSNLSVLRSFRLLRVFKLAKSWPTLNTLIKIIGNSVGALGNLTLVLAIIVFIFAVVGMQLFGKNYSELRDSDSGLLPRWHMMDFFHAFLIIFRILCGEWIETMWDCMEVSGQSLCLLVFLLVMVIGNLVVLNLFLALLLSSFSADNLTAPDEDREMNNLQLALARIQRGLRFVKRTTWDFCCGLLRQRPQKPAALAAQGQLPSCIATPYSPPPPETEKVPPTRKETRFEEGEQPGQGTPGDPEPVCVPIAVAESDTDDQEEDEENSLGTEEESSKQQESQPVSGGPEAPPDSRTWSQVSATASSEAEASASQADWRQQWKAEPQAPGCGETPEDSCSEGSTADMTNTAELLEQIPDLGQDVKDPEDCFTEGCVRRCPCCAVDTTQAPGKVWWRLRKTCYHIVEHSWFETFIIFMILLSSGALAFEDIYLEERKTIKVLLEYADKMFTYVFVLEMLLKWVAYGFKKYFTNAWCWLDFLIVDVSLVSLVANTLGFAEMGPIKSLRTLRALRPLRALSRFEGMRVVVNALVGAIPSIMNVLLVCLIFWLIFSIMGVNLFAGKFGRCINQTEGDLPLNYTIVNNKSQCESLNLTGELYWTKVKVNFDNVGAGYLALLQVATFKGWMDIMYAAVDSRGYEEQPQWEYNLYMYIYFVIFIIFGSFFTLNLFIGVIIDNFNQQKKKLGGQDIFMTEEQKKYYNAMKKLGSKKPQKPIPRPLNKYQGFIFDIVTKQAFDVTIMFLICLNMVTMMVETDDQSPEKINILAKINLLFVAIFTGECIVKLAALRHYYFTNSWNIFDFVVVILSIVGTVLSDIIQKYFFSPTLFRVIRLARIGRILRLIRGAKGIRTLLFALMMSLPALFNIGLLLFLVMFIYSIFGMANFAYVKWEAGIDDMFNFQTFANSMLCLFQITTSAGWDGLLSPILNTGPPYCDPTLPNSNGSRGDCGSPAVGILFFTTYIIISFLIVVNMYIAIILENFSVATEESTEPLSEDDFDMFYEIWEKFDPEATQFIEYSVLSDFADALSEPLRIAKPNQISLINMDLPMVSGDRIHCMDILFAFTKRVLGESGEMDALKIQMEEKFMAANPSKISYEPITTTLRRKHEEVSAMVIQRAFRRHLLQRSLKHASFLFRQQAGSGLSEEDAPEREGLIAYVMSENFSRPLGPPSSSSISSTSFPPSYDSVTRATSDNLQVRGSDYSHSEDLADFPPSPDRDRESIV
In short: as §1

[14] = target: hERG (Homo sapiens, UniProt Q12809); assay: in vitro; details: 100% = no change, <100% = inhibition
In short: as §1

[15] = target: T13, α3β4 (Homo sapiens, UniProt P30926+P32297); assay: Ion channel panel (IonWorks Barracuda): α3β4; type: cell-based; details: 100% = no change, <100% = inhibition
T13 construct: host or cells: HEK293 or CHO
In short: as §1

[16] = target: T14, TRPV1 (Homo sapiens, UniProt Q8NER1); assay: Ion channel panel (IonWorks Barracuda): TRPV1; type: cell-based; details: 100% = no change, <100% = inhibition
T14 construct: host or cells: HEK293 or CHO
In short: as §1

[17] = target: T15, α4β2 (Homo sapiens, UniProt P17787+P43681); assay: Ion channel panel (IonWorks Barracuda): α4β2; type: cell-based; details: 100% = no change, <100% = inhibition
T15 construct: host or cells: HEK293 or CHO
In short: as §1

[18] = test system: GABA; assay: Ion channel panel (IonWorks Barracuda): GABA; type: cell-based; details: 100% = no change, <100% = inhibition
In short: as §1

[19] = first of two Nav1.7 columns (probably TP1)
[20] = second of two Nav1.7 columns (probably TP2)
[21] = first of two Nav1.5 columns (probably TP1)
[22] = second of two Nav1.5 columns (probably TP2)

9 (GSGCFGYKCDYYKGCCSGYVCSPTWKWCVRPGPGR) [compound 9]
Activity of TRPA1 with peptide, expressed as a percentage of the reference compound ([1]; peptide at 0.2 μM): 131%
Activity of TRPA1 with peptide (percentage of the reference compound) ([1]; peptide at 20 μM): 112%
Activity of Cav2.1 with peptide, expressed as a percentage of the reference compound ([2]; peptide at 0.2 μM): 111%
Activity of Cav2.1 with peptide (percentage of the reference compound) ([2]; peptide at 20 μM): 108%
Activity of Kv2.1 with peptide, expressed as a percentage of the reference compound ([3]; peptide at 0.2 μM): 112%
Activity of Kv2.1 with peptide (percentage of the reference compound) ([3]; peptide at 20 μM): 99%
Activity of Cav2.2 with peptide, expressed as a percentage of the reference compound ([4]; peptide at 0.2 μM): 109%
Activity of Cav2.2 with peptide (percentage of the reference compound) ([4]; peptide at 20 μM): 102%
Activity of Kir2.1 with peptide, expressed as a percentage of the reference compound ([5]; peptide at 0.2 μM): 105%
Activity of Kir2.1 with peptide (percentage of the reference compound) ([5]; peptide at 20 μM): 103%
Activity of 5HT3a with peptide (percentage of the reference compound) [6]: 73%
Activity of 5HT3a with peptide, expressed as a percentage of the reference compound [6]: 107%
Activity of NR2B with peptide, expressed as a percentage of the reference compound ([7]; peptide at 0.2 μM): 77%
Activity of NR2B with peptide (percentage of the reference compound) ([7]; peptide at 20 μM): 85%
Activity of Nav1.7 with peptide, expressed as a percentage of the reference compound [8, 19]: 108%
Activity of Nav1.7 with peptide, expressed as a percentage of the reference compound [8, 20]: 110%
Activity of Nav1.7 with peptide (percentage of the reference compound) [8, 19]: 94%
Activity of Nav1.7 with peptide (percentage of the reference compound) [8, 20]: 114%
Activity of NR2A with peptide, expressed as a percentage of the reference compound ([9]; peptide at 0.2 μM): 89%
Activity of NR2A with peptide (percentage of the reference compound) ([9]; peptide at 20 μM): 87%
Activity of Kv1.1 with peptide, expressed as a percentage of the reference compound ([10]; peptide at 0.2 μM): 103%
Activity of Kv1.1 with peptide (percentage of the reference compound) ([10]; peptide at 20 μM): 97%
Activity of Kv1.2 with peptide, expressed as a percentage of the reference compound ([11]; peptide at 0.2 μM): 120%
Activity of Kv1.2 with peptide (percentage of the reference compound) ([11]; peptide at 20 μM): 104%
Activity of Kv1.3 with peptide, expressed as a percentage of the reference compound ([12]; peptide at 0.2 μM): 107%
Activity of Kv1.3 with peptide (percentage of the reference compound) ([12]; peptide at 20 μM): 89%
Activity of Nav1.5 with peptide, expressed as a percentage of the reference compound [13, 21]: 104%
Activity of Nav1.5 with peptide, expressed as a percentage of the reference compound [13, 22]: 103%
Activity of Nav1.5 with peptide (percentage of the reference compound) [13, 21]: 109%
Activity of Nav1.5 with peptide (percentage of the reference compound) [13, 22]: 110%
Activity of hERG with peptide, expressed as a percentage of the reference compound ([14]; peptide at 0.2 μM): 104%
Activity of hERG with peptide (percentage of the reference compound) ([14]; peptide at 20 μM): 98%
Activity of a3b4 with peptide, expressed as a percentage of the reference compound ([15]; peptide at 0.2 μM): 105%
Activity of a3b4 with peptide (percentage of the reference compound) ([15]; peptide at 20 μM): 103%
Activity of TRPV1 with peptide, expressed as a percentage of the reference compound ([16]; peptide at 0.2 μM): 112%
Activity of TRPV1 with peptide (percentage of the reference compound) ([16]; peptide at 20 μM): 79%
Activity of a4b2 with peptide, expressed as a percentage of the reference compound ([17]; peptide at 0.2 μM): 96%
Activity of a4b2 with peptide (percentage of the reference compound) ([17]; peptide at 20 μM): 81%
Activity of GABA with peptide, expressed as a percentage of the reference compound ([18]; peptide at 0.2 μM): 99%
Activity of GABA with peptide (percentage of the reference compound) ([18]; peptide at 20 μM): 98%
